These results are taken from US12564623B2, “Methods and compositions for treating cancer” (The University of Chicago, priority 2017, dated 2026).

The target of assay [1] is T1, CD95 (Homo sapiens, UniProt P25445).
T1 sequence (P25445 26-335): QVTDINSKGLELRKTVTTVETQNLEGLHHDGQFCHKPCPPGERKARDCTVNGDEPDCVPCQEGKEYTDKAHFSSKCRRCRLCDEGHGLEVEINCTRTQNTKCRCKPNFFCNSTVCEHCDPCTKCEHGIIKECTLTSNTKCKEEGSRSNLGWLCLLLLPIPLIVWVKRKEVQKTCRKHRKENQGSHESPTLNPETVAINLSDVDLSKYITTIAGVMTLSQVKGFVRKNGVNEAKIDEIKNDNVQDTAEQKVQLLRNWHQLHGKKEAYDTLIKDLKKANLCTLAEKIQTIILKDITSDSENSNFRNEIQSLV
Conditions: Strand et al., Oncogene, 2004; cited from earlier work.

For a further assay, the system named is MDA-MB-231 cells. Put plainly: Cancer cell killing, Calcein AM staining. Type of assay: cell-based, human. Here is the method:
Approach to identify the factor(s) mediating selective killing. A quantitative cancer cell killing assay was developed to track the bioactive factor(s). MDA-MB-231 cells were treated with various doses of PMN media and cell viability was assessed by Calcein AM live cells fluorescence staining. […] (FIG. 3B) PMN media was passed through a 0.22 μm filter, and protein concentration and killing activity on MDA-MB-231 cancer cells was measured in both pre- and post-filter solutions. […] ELANE and ECP levels in PMN media pre- and post-filtration were quantified by mass spectrometry (spectral counts).
To determine if ELANE and/or ECP were responsible, the inventors (1) immuno-depleted ELANE or ECP from PMN media; (2) treated cancer or normal cells with purified native ELANE or ECP from commercial sources. (FIG. 6A) ELANE or ECP were depleted from PMN media by immunoprecipitation; depletion was confirmed by western blotting. PMN media pre-depletion=Orig. and post-depletion=FT. Non-specific IgG was used as a control. (FIG. 6B) MDA-MB-231 cells or human monocyte-derived macrophages (HMDMs) were treated with purified native ELANE or ECP at various doses for 24h, and killing was assessed by Calcein AM staining. (FIG. 6C) MDA-MB-231 cells and HMDMs were treated with levels of ELANE (0.25 μg/mL) or ECP (0.05 μg/mL) that were present in the PMN media, alone or in combination for 24 hrs, and killing was examined by Calcein AM staining.
High doses of ECP or ELANE can kill cancer cells. The inventors sought to determine whether adding purified human ECP (Lee Biosolutions), human ELANE (Abcam), human DEFA1 (Abcam), human ANXA6 (R&D Systems) or human CASP3 (Abcam) individually could kill cancer cells without killing non-cancer cells. Increasing doses of each protein were added to MDA-MB-231 cells for 5h or human monocyte-derived macrophages (HMDMs) for 24 h and cell viability was determined by Calcein-AM.
ELANE and ECP synergize to selectively kill cancer cells. MDA-MB-231 and human monocyte-derived macrophages (HMDMs) were treated with levels of ELANE (0.25 μg/mL) or ECP (0.05 μg/mL) that were present in the PMN media, alone or in combination for 24 hrs. killing was examined by Calcein AM staining.
Combining chemotherapeutics and neutrophil conditioned media enhances the killing of human triple negative breast cancer cells. MDA-MB-231 cells were treated with neutrophil conditioned media (Neu-CM; 4 μg/mL), doxorubicin (DOX; 0.3 μM), or paclitaxel (PTX; 3 nM) for 4h, individually or in combination, and cell viability was assessed by Calcein-AM.
(§1) Other serine proteases cleave the C-terminal domain of CD95, and the ability to cleave the C-terminal domain is associated with cancer cell killing. (FIG. 12A) Full length recombinanat CD95 protein was incubated with various serine proteases (human ELANE (80 nM), PR3 (80 nM), CSTG (80 nM), PPE (80 nM), mouse ELANE (80 nM), rat ELANE (500 nM), GZMB (80 nM), or Trypsin (250 nM)), or other types of proteases (CTSC (80 nM); or MMP7 (80 nM), MMP9 (80 nM), CTSD (80 nM) not shown) at 37° C. for 2 hours. Degradation was assessed by SDS-PAGE followed by coomassie blue staining. (FIG. 12B) MDA-MB-231 cancer cells were incubated with various proteases for 24 hrs. Cell viability was assessed by Calcein AM staining.
(FIG. 13A) MDA-MB-231 cancer cells were treated with various doses of purified native ELANE or purified native porcine pancreatic elastase (PPE) for 6 h, and killing was assessed by Calcein AM staining. (FIG. 13B). Purified native ELANE or purified native PPE was incubated with different concentrations of alpha-1-anti-trypsin (A1AT) for 15 mins. Catalytic activity was measured using a chromogenic substrate assay. Cancer cell killing capability was determined by treating MDA-MB-231 cancer cells with ELANE or PPE in the presence or absence of A1AT for 6h, followed by Calcein AM staining. (FIG. 13C) Catalytic activity was measured using a chromogenic substrate assay. […]

The target in assay [2] is alpha-1-anti-trypsin (A1AT) (Homo sapiens, UniProt P01009). Put plainly: Inhibition of elastase activity and killing by A1AT or FBS. It counts as biochemical. Conditions: 15 mins, killing 6 h. How it is done:
(FIG. 13A) MDA-MB-231 cancer cells were treated with various doses of purified native ELANE or purified native porcine pancreatic elastase (PPE) for 6 h, and killing was assessed by Calcein AM staining. (FIG. 13B). Purified native ELANE or purified native PPE was incubated with different concentrations of alpha-1-anti-trypsin (A1AT) for 15 mins. Catalytic activity was measured using a chromogenic substrate assay. Cancer cell killing capability was determined by treating MDA-MB-231 cancer cells with ELANE or PPE in the presence or absence of A1AT for 6h, followed by Calcein AM staining. (FIG. 13C) Catalytic activity was measured using a chromogenic substrate assay. Cancer cell killing capability was determined by treating MDA-MB-231 cancer cells with ELANE or PPE in the presence or absence of FBS for 6 h, followed by Calcein AM staining.
Elastase activity for purified native ELANE or purified native PPE at various dose were measured. It's corresponding killing ability was also tested on MDA-MB-231 cancer cells. Killing was assessed 6 hrs after treatment by Calcein AM staining. […] Killing was assessed 6 hrs after treatment by Calcein AM staining. […] Killing was assessed 6 hrs after treatment by Calcein AM staining.

Assay [3] deals with T1, CD95. Put plainly: Recombinant CD95 degradation, SDS-PAGE and coomassie blue. Type of assay: biochemical. Also noted: Recombinant proteins (1 μg) corresponding to full length CD95 (FL-CD95). The settings on record: purified CD95. Here is the method: ELANE lowers CD95 levels in cancer cells and reduced CD95 levels are associated with apoptosis. (FIG. 8A) Recombinant proteins (1 μg) corresponding to full length CD95 (FL-CD95), N-terminal domain of CD95 (amino acids 1-173; N-CD95), or C-terminal domain of CD95 (amino acids 157-320; C-CD95) were inbuated with ELANE (0.05 μg) or vehicle (Veh) for 2 hrs at 37° C. Degradation was assessed by SDS-PAGE followed by coomassie blue staining. […] (FIG. 8C) Cancer cells were treated with ELANE (50 nM) for 1 hr, fixed in 10% formalin, and stained with N- or C-terminal specific anti-CD95 antibodies (green). Hoechst 33342 solution was used for nuclear staining (blue). Images were taken under 40×.
ELANE selectively cleaves the C-terminal domain of CD95. The CD95 pathway is essential for the survival of a wide range of cancer cells, but largely dispensable for normal cell survival (Adachi et al., Nat. Genet., 1995; Karray et al., J. Immunol., 2004). CD95 function can be modulated by proteolysis (Strand et al., Oncogene, 2004). To test CD95 involvement in ELANE mediated cell killing ELANE (0.05 μg) was incubated with 1 μg recombinant human C-terminal (aa. 157-320) or N-terminal (aa. 1-173) CD95 for 2 hrs at 37° C. Degradation was assessed by SDS-PAGE followed by staining with coomassie blue. C-terminal domain cleavage. N-terminal domain cleavage. Cancer cells were treated with ELANE (50 nM) for 1 hr, fixed in 10% formalin, and stained with N- or C-terminal specific anti-CD95 antibodies. Hoechst 33342 solution was used for nuclear staining. Images were taken under 40×. […] Mel888 cancer cells were treated with ELANE (50 nM) for various times, and CD95 degradation was assessed by western blot analysis with a C-terminal specific anti-CD95 antibody.
as §1

“Also recorded” adds a separate entry of the source.

Chain of alpha-1-anti-trypsin (A1AT) (P01009 25-418, species assumed): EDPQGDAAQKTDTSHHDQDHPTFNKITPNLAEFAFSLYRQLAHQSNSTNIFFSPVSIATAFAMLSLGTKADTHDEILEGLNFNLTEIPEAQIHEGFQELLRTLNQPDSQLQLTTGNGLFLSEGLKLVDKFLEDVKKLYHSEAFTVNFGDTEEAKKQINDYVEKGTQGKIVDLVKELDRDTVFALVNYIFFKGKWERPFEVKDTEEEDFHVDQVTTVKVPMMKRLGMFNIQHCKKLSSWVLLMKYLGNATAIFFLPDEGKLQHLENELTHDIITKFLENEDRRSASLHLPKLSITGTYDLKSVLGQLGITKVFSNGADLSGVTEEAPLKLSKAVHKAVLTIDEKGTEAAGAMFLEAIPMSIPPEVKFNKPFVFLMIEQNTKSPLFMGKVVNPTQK

Take “MMP7: protease previously shown to cleave the extracellular N-terminal domain of CD95”: the “cleavage of CD95” value with CD95 [1] is recorded as “cleave the extracellular N-terminal domain of CD95”.
As to porcine pancreatic elastase [PPE], the “cancer cell killing by proteases” value with MDA-MB-231 cells is reported as “killed cancer cells”. Also, the “toxicity to cancer cells, ELANE versus PPE” value in the assay with MDA-MB-231 cells (various doses, 6 h) was “equally toxic to cancer cells”. Further, the “susceptibility to inhibition by serine protease inhibitors” value in assay [2] is on record as “more resistant to inhibition by serine protease inhibitors; also recorded: less susceptibility to alpha 1 anti-trypsin (A1AT) or serum blocking”. For the same substance, in the assay with CD95 [3], the “cleavage of purified CD95” value was “cleaved purified CD95 with an identical degradation pattern to ELANE”.
